Data taken from patent US20260146094A1 (CHIA TAI TIANQING PHARMACEUTICAL GROUP, published 2026).

Columns and labels:
[1] = molecular target: T1, macaque c-Met on macaque epithelial cell 4MBr-5 (macaque); assay: flow cytometry on 4MBr-5 macaque epithelial cells
T1 construct: whole, on cells; also called 4MBr-5 cell

[2] = molecular target: T2, Human c-Met-His (SinoBiological, product catalog No. 10692-H08H) (human, UniProt P08581 25-932); assay: competitive ELISA, coated human c-Met-His, blocking of HGFβ
T2 construct: Bought protein; also called human c-Met-His protein; c-Met-His protein; not shown: His tag
T2 sequence (P08581 25-932 limits assumed): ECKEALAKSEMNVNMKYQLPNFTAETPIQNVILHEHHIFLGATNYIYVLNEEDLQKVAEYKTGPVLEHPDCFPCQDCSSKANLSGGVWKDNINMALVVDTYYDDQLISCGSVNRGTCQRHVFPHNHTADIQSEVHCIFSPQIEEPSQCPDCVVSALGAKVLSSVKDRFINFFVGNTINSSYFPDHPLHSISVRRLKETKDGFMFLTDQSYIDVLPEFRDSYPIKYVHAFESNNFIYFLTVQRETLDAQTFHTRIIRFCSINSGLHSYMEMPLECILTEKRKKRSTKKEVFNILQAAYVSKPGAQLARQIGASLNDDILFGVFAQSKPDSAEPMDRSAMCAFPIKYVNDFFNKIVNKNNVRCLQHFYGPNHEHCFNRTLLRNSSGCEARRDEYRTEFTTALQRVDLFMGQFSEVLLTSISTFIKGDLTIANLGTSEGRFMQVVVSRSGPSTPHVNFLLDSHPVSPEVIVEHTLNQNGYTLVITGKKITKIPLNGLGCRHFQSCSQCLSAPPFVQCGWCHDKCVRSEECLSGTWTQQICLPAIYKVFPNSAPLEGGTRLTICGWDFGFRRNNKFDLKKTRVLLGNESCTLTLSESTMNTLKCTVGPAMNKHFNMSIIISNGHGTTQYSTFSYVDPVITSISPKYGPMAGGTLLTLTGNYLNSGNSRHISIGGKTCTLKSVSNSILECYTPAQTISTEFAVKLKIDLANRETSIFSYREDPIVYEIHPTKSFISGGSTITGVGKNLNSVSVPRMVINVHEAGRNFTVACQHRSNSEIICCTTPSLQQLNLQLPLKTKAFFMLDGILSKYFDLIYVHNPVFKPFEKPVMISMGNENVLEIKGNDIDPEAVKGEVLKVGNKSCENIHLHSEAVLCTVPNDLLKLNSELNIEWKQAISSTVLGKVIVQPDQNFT
Method: (§1) After the plate was washed, an HRP-conjugated streptavidin (eBioscience, product catalog No. 18-4100-51) was added. The plate was incubated at 25° C. for 1 h and then washed 5 times, and a TMB substrate solution (TIANGEN, product catalog No. PA107) was added at 100 μL/well for color development. The light absorption signal values at the wavelength of 450 nm and the reference wavelength of 650 nm were measured. A curve (FIG. 2A) was fit, and the IC₅₀ values (Table 4) were calculated.
A curve (FIG. 2B) was fit based on the results, and the IC₅₀ values were calculated (Table 4).

[3] = molecular target: T2, Human c-Met-His (SinoBiological, …); assay: competitive ELISA, coated human c-Met-His, blocking of biotin-HGF
Method: as §1

[4] = molecular target: human c-Met on natural human tumor cell lines (H1993, MKN45, KP4, H441) (human, UniProt P08581 25-1390); assay: cell-based or functional assay
Chain of human c-Met on natural human tumor cell lines (H1993, MKN45, KP4, H441) (P08581 25-1390): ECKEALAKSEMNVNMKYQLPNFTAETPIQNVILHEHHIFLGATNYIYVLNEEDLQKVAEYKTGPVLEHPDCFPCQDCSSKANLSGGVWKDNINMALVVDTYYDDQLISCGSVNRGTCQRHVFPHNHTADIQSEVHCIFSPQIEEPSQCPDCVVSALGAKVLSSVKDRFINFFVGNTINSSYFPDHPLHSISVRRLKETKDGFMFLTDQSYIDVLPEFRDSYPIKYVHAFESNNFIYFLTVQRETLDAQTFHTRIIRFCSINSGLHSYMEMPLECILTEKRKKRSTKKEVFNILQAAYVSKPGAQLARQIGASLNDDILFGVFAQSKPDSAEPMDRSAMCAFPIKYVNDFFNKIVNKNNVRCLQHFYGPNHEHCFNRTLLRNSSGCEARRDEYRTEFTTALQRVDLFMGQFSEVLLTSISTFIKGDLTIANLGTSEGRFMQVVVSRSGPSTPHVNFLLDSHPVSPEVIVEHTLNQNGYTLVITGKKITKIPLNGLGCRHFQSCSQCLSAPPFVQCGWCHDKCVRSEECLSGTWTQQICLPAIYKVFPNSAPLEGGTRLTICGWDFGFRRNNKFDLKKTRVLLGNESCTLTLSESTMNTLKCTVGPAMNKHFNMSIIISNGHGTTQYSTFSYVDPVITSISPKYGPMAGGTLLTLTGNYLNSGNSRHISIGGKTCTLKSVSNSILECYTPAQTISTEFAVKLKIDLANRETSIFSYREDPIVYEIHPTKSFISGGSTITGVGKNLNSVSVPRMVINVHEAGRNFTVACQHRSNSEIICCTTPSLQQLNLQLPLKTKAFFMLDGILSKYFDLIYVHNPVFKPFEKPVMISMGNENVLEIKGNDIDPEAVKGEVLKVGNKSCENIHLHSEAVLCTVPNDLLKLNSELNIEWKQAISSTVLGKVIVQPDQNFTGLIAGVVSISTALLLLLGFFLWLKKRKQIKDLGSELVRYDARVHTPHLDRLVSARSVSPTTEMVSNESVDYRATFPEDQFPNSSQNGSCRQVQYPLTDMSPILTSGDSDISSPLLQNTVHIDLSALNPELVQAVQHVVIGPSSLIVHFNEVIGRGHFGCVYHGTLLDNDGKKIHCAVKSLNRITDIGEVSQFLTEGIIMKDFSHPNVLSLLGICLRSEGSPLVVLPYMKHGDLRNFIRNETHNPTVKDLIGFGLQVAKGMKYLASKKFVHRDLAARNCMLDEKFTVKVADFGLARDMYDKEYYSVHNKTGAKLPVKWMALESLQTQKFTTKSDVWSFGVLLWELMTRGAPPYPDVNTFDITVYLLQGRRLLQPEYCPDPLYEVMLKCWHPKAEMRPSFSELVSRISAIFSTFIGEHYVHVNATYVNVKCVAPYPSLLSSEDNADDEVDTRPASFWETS

| Binder | EC50 [1] [nM] | other results |
| --- | --- | --- |
| 3B-1C7-Fc (antibody, human IgG1, V domains shown, also called anti-human c-Met VHH-Fc chimeric antibody 3B-1C7-Fc) VH: QVQLVESGGDSVQAGGSLRLSCIASGFTFDGTTMGWYRQAPGDECELVSDISSDGNTYYSDSVKGRFTISQGNAKNTVYLQMNSLTPEDTAVYYCAAAEFRLLLRPLCRQDDYGYWGQGTLVTVSS | 0.284 |  |
| 1B-1C7-Fc (antibody, human IgG1, V domains shown, also called anti-human c-Met VHH-Fc chimeric antibody 1B-1C7-Fc) VH: QVQLVESGGGLVQPGGSLRLSCAASGYSYSANCVGWFYQAPGKEREGVAAINTGGETATYADFVKGRFTISQDYAKNTVYLQMNSLKSEDTGMYYCAAVGTRKYWDECSLSQHAYKNWGQGTLVTVSS | 0.071 |  |
| 1B-1A8-Fc (antibody, human IgG1, V domains shown, also called anti-human c-Met VHH-Fc chimeric antibody 1B-1A8-Fc) VH: EVQLVESGGGLVQPGGSLRLSCVASGFTFKSYAMDWVRQAPGKGLEWIAGINSAGSPSYEASVKGRFTISRDNAENTLYLQLNSLKTEDTAMYYCTKCRDFRSPYCRPGQGTLVTVSS | 0.471 | IC50 [2]: 3.56 nM; Maximum blocking rate [2]: 75%; IC50 [3]: 3.14 nM; Maximum blocking rate [3]: 63%; Phosphorylation inhibition IC50 (nM), H441 cells, Phospho-c-Met (Tyr1234/1235) AlphaLISA [4]: 0.85 nM; Phosphorylation inhibition, Maximum inhibition rate, H441 cells [4]: 90% |
| 1B-3B11-Fc (antibody, human IgG1, V domains shown, Expressed in CHO; also called anti-human c-Met VHH-Fc chimeric antibody 1B-3B11-Fc) VH: QVQLVESGGGSVQAGGSLRLSCVVSGYTYSSVAWFRQTPGKEREGVAVINPGGDNTDYTYAVKGRFTISRDSAKSTVFLQMNNLESEDTAMYYCAAGRTFGGTWMDRNKWKYWGQGTLVTVSS | 0.736 |  |
| 1B-1B2-Fc (antibody, human IgG1, V domains shown, also called anti-human c-Met VHH-Fc chimeric antibody 1B-1B2-Fc) VH: EVQLVESGGGSVQAGGSLRLSCTASGFTFDMGWYRQAPGDECELVSSISSDGNSDYLDSVKGRFTISQDNAKNTVYLQMNSLKPEDTAVYYCAANGAGHLVLRPLCGSNAVDAWGQGTLVTVSS | 0.418 |  |
| 1B-1B6-Fc (antibody, human IgG1, V domains shown, also called anti-human c-Met VHH-Fc chimeric antibody 1B-1B6-Fc) VH: QVQLVESGGDSVQAGGSLRLSCAASAHAYSSGCMGWFRQAPGKGREGVATIYTRNDFTYYSDSVKGRFTISRDDAKNTVYLQVNSLKAEDTAMYYCAAGSPFRYAGAWNVCGLKEEDYNYWGQGTLVTVSS | 0.682 |  |
